What is called Kd is the free concentration of one partner at which half of the binding sites on the other are occupied at equilibrium, for simple one-to-one binding.

Data on three molecules can be found in article PMC3189207 (2011).

Common to all, as to experiment: fluorescence polarization
One assay addresses T1, ZO2 (Homo sapiens).
T1 chain: QSARYDTEL

In the next assay the target is T2, ANKS4B (Homo sapiens).
T2 chain: QPGQLVDTSL

Another assay has as its target T3, AHDC1 (Homo sapiens).
T3 chain: PEDTFTVTSL

In the next assay the target is T4, APC (Homo sapiens).
T4 chain: HSGSYLVTSV

The target of another assay is T5, ZNF654 (Homo sapiens).
T5 chain: SSAQPSETIL

Another assay addresses T6, ABR (Homo sapiens).
T6 chain: RNTLYFSTDV

B1: Scrib PDZ3 (protein)
chain: PVEEIRLPRAGGPLGLSIVGGSDHSSHPFGVQEPGVFISKVLPRGLAARSGLRVGDRILAVNGQDVRDATHQEAVSALLRPCLELSLLVRRDPAPP
In the case of B1, the dissociation constant (Kd) with ZO2 was 13.7 µM; with ANKS4B, 28.2 µM; in the assay with AHDC1 it was 10.4 µM; in the assay with APC it was 6.7 µM; in the assay with ZNF654, 18.3 µM; in the assay with ABR it was 2.9 µM.

B2: Scrib PDZ2 (protein)
chain: QRHVACLARSERGLGFSIAGGKGSTPYRAGDAGIFVSRIAEGGAAHRAGTLQVGDRVLSINGVDVTEARHDHAVSLLTAASPTIALLLEREAGGP
As for B2, the Kd with APC was found to be 9.5 µM; with ZNF654 it was 32.1 µM; with ABR, 10.4 µM.

B3: Scrib PDZ1 (protein)
chain: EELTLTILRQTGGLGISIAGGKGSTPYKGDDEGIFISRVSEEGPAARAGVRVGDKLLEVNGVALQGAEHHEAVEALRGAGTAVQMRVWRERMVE
As for B3, the dissociation constant (Kd) with ZO2 came to 16 µM; with AHDC1, 19.2 µM; with APC it was 12.3 µM; with ABR, 12.5 µM.
